How the values were obtained:
[1] = target: T1, human IL-18 (MBL Medical & Biological Laboratories, Co., Ltd.) (human, UniProt Q14116 37-193, biotinylated (Biotin-PEAC5-maleimide or Biotin-AC5 Sulfo-OSu) in the streptavidin plate ELISAs and the panning; not labelled in the receptor binding and KG-1 assays); assay: blocking ELISA: human IL-18 with IL-18Rα-hFc-His and the antibody added to plate-bound IL-18Rβ-hFc, anti-His tag/HRP; blocked partner: IL-18 receptor
T1 construct: Bought protein; also called human interleukin-18; biotinylated human IL-18
T1 sequence (looked up): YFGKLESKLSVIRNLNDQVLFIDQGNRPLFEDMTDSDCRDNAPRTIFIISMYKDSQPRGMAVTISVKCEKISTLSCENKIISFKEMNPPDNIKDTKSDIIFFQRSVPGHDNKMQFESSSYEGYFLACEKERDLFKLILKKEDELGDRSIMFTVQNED
Experimental: IL-18Rβ-hFc (R&D Systems, Inc.) was added at 100 μL/well at a concentration of 1 μg/mL to Covalink plates (Nunc) and incubated at room temperature for 1 hour and then incubated overnight at 4° C. On the next day, the plates were washed with PBS (phosphate buffered saline) and blocked with 1% BSA (bovine serum albumin)-PBS. Human IL-18 (MBL Medical & Biological Laboratories, Co., Ltd.) was prepared at a concentration of 0.5 μg/mL with 1% BSA-PBS, and IL-18Rα-hFc-His (R&D Systems, Inc.) was prepared at a concentration of 2 μg/mL with 1% BSA-PBS. Both of the solutions were mixed (50 μL each). The obtained anti-IL-18 antibody was further added to the IL-18/IL-18Rα-hFc-His mixed solution. This mixed solution was added to the IL-18Rβ-hFc-immobilized Covalink plates and incubated at 37° C. for 1 hour. After 1 hour, the plates were washed with PBST (phosphate buffered saline-Tween 20), and a detection antibody anti-His tag/HRP (Bethyl Laboratories, Inc.) was added at 100 μL/well to the plates and incubated at 37° C. After 1 hour, the plates were washed with PBST, and TMB (Sigma-Aldrich Corp.) was added at 100 μL/well to the plates to develop color. After 30 minutes, the reaction was terminated with 2 N sulfuric acid, and the color values (O.D. 450 nm/650 nm) were measured using a microplate reader (Molecular Devices, Inc.).

[2] = target: T1, human IL-18 (MBL Medical & Biological …); assay: flow cytometry, blocking: human IL-18 100 ng/mL pre-mixed with the antibody, added to KG-1 cells, bound IL-18 detected with biotinylated 125-2H and streptavidin-PE; blocked partner: native IL-18 receptor [b]
Experimental: Human IL-18 (MBL Medical & Biological Laboratories, Co., Ltd.) was diluted to 100 ng/mL with 1% BSA-PBS-0.05% NaN₃-2% rabbit serum, mixed with the obtained anti-IL-18 antibody, and incubated at room temperature for 60 minutes. Then, the human IL-18/anti-IL-18 antibody mixed solution was added to KG-1 cells (1×10⁵ cells) cultured by a standard technique (e.g., a medium in which an RPMI1640 medium was supplemented with 10% bovine serum, 2 mM L-glutamine, 50 U/mL penicillin, and 50 μg/mL streptomycin), and reacted on ice. After 30 minutes, the supernatant was removed by centrifugation (1200 rpm, 3 min, 4° C.), and a biotinylated anti-IL-18 antibody 125-2H (MBL Medical & Biological Laboratories, Co., Ltd.) not inhibiting the binding between IL-18 and IL-18 receptor was added thereto and reacted on ice. After 30 minutes, the supernatant was removed by centrifugation (1200 rpm, 3 min, 4° C.), and streptavidin-PE (BD Becton, Dickinson and Company) was added thereto and reacted on ice for 30 minutes. After the reaction, the supernatant was removed by centrifugation (1200 rpm, 3 min, 4° C.), and the KG-1 cells were floated with 1% BSA-PBS-0.05% NaN₃-2% rabbit serum. The fluorescence intensity in the reacted KG-1 cells was measured using FACScan (BD Becton, Dickinson and Company).

[3] = target: T1, human IL-18 (MBL Medical & Biological …); assay: ELISA, biotinylated human IL-18 on streptavidin plate, HRP detection antibody, O.D. 450nm/650nm
Experimental: The binding activity of the obtained scFv phages, scFv, and IgG prepared by a standard method (conventional method) was evaluated by ELISA. The biotinylated human IL-18 or the biotinylated mouse IL-18 was diluted to 1 μg/mL with PBS (Sigma-Aldrich Corp.), added at 100 μL/well to Streptavidin plates (Nunc), and incubated at room temperature for 2 hours to immobilize the IL-18. After the immobilization, the plates were washed with PBST, and each obtained scFv phage, scFv, or IgG was added at 100 μL/well to the plates and incubated at 37° C. After 1 hour, the plates were washed with PBST, and a detection antibody anti-M13/HRP (GE Healthcare Japan Corp.), anti-His tag/HRP (Bethyl Laboratories, Inc.), anti-V5 tag/HRP (Bethyl Laboratories, Inc.), anti-mouse IgG/HRP (Invitrogen Corp.), or anti-hFc/HRP (Cosmo Bio Co., Ltd., The binding site) was added at 100 μL/well to the plates and incubated at 37° C. After 1 hour, the plates were washed with PBST, and TMB (Sigma-Aldrich Corp.) was added at 100 μL/well to the plates to develop color. After 30 minutes, the reaction was terminated with 2 N sulfuric acid, and the color values (O.D. 450 nm/650 nm) were measured using a microplate reader (Molecular Devices, Inc.).

[4] = target: T1, human IL-18 (MBL Medical & Biological …); assay: cell-based or functional assay

B1: IgG molecule-type 4A6D (antibody, V domains shown)
VH: EVQLVESGGGLVQPGGSMRLSCTASGFTFDEYAMSWVRQAPGKGLEWVSGISTGGGGTYYADSVEGRFTISRDNSKNTLYLQMNSLRAEDTAVYYCAKPWLSGSRSGDFWGQGTLVTVSS
VL: QSALTQPASVSGSPGQSITISCTGTSSDVGGYNYVSWYQQHPGKAPKLLIYEVSHRPSGVSDRFSGSKSGNTASLTISGLQAEDEADYYCSSFTSSSSLYVFGTGTKLTVL
notes: detected with anti-hFc, so human constant regions; also called human anti-human IL-18 antibody 4A6D
Question: What does the source list for B1?
Answer: IC50 (read off the curve) [1]: ~0.3 µg/mL; IC50 (read off the curve) [2]: ~0.2 µg/mL; EC50 (read off the curve) [3]: ~0.02 µg/mL; Neutralizing ability (IC50, nM) [4]: 0.007 nM

From patent US20190077858A1 (KM BIOLOGICS, published 2019)
